The subject of experiment [1] is PKCδVIII and Bcl2 expressed in SH-SY5Y neuronal cells. Kind of experiment: Western blot of PKCδVIII and Bcl2 in SH-SY5Y neuronal cells. The experiment is classed as cell-based, human. Conditions: SH-SY5Y, G-CSF 100 ng/mL (5.3 nM), 24 h. The method, then:
(§1) THP-1 cells or SH-SY5Y cells 3×10^6 cells in 5 mL media in a 25 cm^2 flask were treated with 100 ng/mL G-CSF or three different concentrations of the test drug for 24 h. In addition, a set of flasks were co-incubated with the combination of G-CSF and 3 concentrations of test drug. Whole cell lysates ([…]) were separated on 10% polyacrylamide gel electrophoresis-SDS (PAGE-SDS). Proteins were electrophoretically transferred to nitrocellulose membranes, blocked with 5% nonfat milk prepared on Tris buffered saline containing 0.1% Tween 20, washed and incubated with a polyclonal antibody against either Bcl2 (Cell Signaling, Danvers, Mass.) or PKCδVIII-specific polyclonal antibody (Jiang, K., et al. Biochemistry 2008, 47, 787-797). The house keeping gene GAPDH was used as an internal standard. Following incubation with anti-rabbit IgG-HRP, enhanced chemiluminesence (Pierce™, Thermo Scientific, Walthahm, Mass.) was used for detection and the gels were analyzed using UN-SCAN-IT™ software (Silk Scientific, Inc., Orem, Utah).
(§2) Statistical analysis. Densitometric results from Western blots were analyzed with two-tailed t-tests when only two groups were compared. In other analyses where 3 groups were compared, one-way ANOVA followed by t-tests with Dunnett's corrections for multiple comparisons was utilized. All data was presented as mean±SEM. All statistical analysis of data was done via PRISM4 or PRISM5 statistical analysis software (GraphPad Prism, La Jolla, Calif.). Neurohistologic analyses are performed using ANOVA. All comparisons were considered significant at level of P<0.05.

Experiment [2] deals with PKCδVIII and Bcl2 expressed in THP-1 monocytic cells. The experiment can be described thus: Western blot of PKCδVIII and Bcl2 in THP-1 monocytic cells. In kind it is cell-based, human. Conditions: THP-1, G-CSF 200 ng/mL (10.6 nM), 24 h. The method, then: as §1, with “In” for “THP-1 cells or SH-SY5Y cells 3×10^6 cells in 5 mL media in a 25 cm^2 flask were treated with 100 ng/mL G-CSF or three different concentrations of the test drug for 24 h. In”
as §2

The subject of the next experiment is mouse model of TBI. Conditions: earlier G-CSF work stated as background to Example 6; cited from earlier work.

Entries after “also recorded” stand apart in the source; their conditions may differ.

B1: G-CSF: Granulocyte-colony stimulating factor, a glycoprotein cytokine; natural ligand of G-CSF-R; SEQ ID NO: 1 (protein, listed as Homo sapiens)
chain: MAGPATQSPMKLMALQLLLWHSALWTVQEATPLGPASSLPQSFLLKCLEQVRKIQGDGAALQEKLVSECATYKLCHPEELVLLGHSLGIPWAPLSSCPSQALQLAGCLSQLHSGLFLYQGLLQALEGISPELGPTLDTLQLDVADFATTIWQQMEELGMAPALQPTQGAMPAFASAFQRRAGGVLVASHLQSFLEVSYRVLRHLAQP
As for B1, in experiment [1], the Bcl2 expression entry was “much greater at equivalent concentrations; also recorded: increased” and the PKCδVIII expression result is “much greater at equivalent concentrations; also recorded: increased”. In experiment [2], the Bcl2 expression entry is “increased the expression of PKCδVIII and Bcl2”; the PKCδVIII expression entry was “increased the expression of PKCδVIII and Bcl2”. In addition, the “recovery in the radial arm water maze (RAWM)” value in the experiment with mouse model of TBI is “significantly promoted recovery”.

Values taken from patent publication US10813913B2, “Small molecules that mimic or antagonize actions of granulocyte colony-stimulating-factor (G-CSF)” (UNIVERSITY OF SOUTH FLORIDA, priority 2016, dated 2020).
